Results published in US20230071371A1 (Scripps Research, published 2023).
Where two headings read alike, the source gives them in different places. Bridges are numbered along the chain shown (N, C = ends). Where no end group is shown, it is not given here. [ ]: non-standard residue; d: D form. hArg = N=C(N)NCCCC[C@H](N)C(=O)O; staple K4 = not defined here; staple K5 = not defined here; Nle = CCCC[C@H](N)C(=O)O; L12 = not defined here; L4A = not defined here; L5A = not defined here; K0 = not defined here; K4 = not defined here; K5 = not defined here; L1 = not defined here; L3 = not defined here; L4 = not defined here; L5 = not defined here; L7 = not defined here; L8 = not defined here; L9 = not defined here; Aib = CC(C)(N)C(=O)O

Tests used:
Experiment in all cases: cell-based or functional assay
human GLP-1R (human) = human GLP-1R (human) (UniProt P43220)
human GLP-1R (human), sequence (P43220 24-463): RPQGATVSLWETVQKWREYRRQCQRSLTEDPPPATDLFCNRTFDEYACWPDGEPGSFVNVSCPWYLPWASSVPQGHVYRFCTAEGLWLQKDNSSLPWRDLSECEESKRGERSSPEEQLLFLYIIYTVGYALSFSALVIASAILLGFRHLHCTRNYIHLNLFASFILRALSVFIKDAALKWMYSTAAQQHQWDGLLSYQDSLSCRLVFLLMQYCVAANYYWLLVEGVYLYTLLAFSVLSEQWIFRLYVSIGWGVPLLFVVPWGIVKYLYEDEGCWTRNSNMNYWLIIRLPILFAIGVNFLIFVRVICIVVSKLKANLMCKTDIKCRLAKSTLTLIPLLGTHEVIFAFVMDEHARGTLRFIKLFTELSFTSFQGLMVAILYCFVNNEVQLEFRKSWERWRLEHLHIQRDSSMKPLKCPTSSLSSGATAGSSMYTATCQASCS

human GCGR (human) = human GCGR (human) (UniProt P47871)
human GCGR (human), sequence (P47871 26-477): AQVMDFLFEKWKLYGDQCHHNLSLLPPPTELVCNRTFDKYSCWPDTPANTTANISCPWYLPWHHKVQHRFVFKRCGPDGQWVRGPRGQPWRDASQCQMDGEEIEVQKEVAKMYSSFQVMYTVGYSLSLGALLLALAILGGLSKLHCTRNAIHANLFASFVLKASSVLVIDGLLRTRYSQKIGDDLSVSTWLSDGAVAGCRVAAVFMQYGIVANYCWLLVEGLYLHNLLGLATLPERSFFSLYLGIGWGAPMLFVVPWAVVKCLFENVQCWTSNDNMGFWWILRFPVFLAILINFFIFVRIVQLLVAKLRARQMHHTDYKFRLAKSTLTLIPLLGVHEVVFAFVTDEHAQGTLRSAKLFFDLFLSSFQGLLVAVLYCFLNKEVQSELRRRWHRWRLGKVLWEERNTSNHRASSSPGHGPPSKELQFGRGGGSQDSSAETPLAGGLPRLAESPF

human GCGR = human GCGR (human, UniProt P47871 26-477)
human GCGR, sequence (P47871 26-477): as above

human GLP-1R [1] = molecular target: T1, human GLP-1R (human, UniProt P43220 24-463)
GPR10 [2] = molecular target: T2, GPR10 (UniProt P49683 1-370, limits assumed)
T2 sequence (looked up): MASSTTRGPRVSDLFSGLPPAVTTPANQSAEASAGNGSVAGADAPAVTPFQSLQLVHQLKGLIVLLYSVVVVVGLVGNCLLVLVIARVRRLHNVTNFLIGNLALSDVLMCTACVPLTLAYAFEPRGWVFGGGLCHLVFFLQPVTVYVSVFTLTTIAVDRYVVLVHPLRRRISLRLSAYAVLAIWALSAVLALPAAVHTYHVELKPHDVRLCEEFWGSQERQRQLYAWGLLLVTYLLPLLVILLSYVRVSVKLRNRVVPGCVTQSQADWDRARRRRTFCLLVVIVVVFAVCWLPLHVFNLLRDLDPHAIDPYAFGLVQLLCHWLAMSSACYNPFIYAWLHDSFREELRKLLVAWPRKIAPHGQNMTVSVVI

human NPFF2R = human NPFF2R (human, UniProt Q9Y5X5 1-522)
human NPFF2R, sequence (Q9Y5X5 whole entry): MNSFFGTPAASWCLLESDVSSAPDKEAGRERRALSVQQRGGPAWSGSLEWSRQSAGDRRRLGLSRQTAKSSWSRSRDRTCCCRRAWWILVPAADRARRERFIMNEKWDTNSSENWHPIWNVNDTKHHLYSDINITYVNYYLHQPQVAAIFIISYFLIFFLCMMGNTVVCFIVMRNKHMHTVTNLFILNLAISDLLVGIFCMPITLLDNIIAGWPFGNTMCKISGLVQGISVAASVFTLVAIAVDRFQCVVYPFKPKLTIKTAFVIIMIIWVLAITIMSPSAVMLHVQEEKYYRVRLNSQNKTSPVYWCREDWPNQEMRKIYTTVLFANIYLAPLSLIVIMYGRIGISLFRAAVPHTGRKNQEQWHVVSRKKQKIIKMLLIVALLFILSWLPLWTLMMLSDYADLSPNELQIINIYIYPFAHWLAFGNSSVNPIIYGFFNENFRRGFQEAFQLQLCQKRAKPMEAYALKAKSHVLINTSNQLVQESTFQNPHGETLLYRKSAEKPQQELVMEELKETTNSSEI

GPR10 [3] = molecular target: T2, GPR10; remark: listed apart in the source
human GIPR [4] = molecular target: T3, human GIPR (human, UniProt P48546 22-466)
T3 sequence (looked up): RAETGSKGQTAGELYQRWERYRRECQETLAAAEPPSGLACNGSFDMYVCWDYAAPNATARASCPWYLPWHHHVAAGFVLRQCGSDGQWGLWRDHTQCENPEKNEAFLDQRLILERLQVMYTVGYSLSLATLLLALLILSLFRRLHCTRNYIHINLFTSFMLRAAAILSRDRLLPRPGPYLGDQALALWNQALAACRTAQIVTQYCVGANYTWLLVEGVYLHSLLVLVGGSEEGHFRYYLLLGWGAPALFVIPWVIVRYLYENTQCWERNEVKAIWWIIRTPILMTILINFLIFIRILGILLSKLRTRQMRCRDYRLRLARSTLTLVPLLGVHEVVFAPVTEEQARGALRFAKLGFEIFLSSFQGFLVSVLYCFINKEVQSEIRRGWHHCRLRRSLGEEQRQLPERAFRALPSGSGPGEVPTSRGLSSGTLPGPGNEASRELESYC

human GLP-1R [5] = molecular target: T1, human GLP-1R; remark: listed apart in the source
human GIPR [6] = molecular target: T3, human GIPR; remark: listed apart in the source
human GLP-1R [7] = molecular target: T1, human GLP-1R; remark: listed apart in the source
human GLP-1R [8] = molecular target: T1, human GLP-1R; remark: listed apart in the source

H[dS]QGTFTSDYSKYLDECAAKEFICWLLNGGPSSGAPPPS (linker 17-24 via L4A; ends not checked) [Conjugate 135]
EC50 cAMP 0% FBS (human GLP-1R (human)): 0.0075 nM
EC50 cAMP 0% FBS (human GCGR (human)): 0.0068 nM

H[dS]QGTFTSDYSKYLDECAAKEFICWLLRA (linker 17-24 via L5A; reading uncertain) [Conjugate 137]
EC50 cAMP 0% FBS (human GCGR): 0.444 nM
EC50 cAMP 0% FBS (human GLP-1R [1]): 2.02 nM

H[dS]QGTFTSDYSKYLDECAAKEFICWLLNGGPSSGAPPPS (linker 17-24 via L5A; ends not checked) [Conjugate 138]
EC50 cAMP 0% FBS (human GLP-1R (human)): 0.908 nM
EC50 cAMP 0% FBS (human GCGR (human)): 1.42 nM

H[dS]QGTFTSDYSKYLDECAAKEFICWLLRA (linker 17-24 via L4A; reading uncertain) [Conjugate 136]
EC50 cAMP 0% FBS (human GCGR): 0.559 nM
EC50 cAMP 0% FBS (human GLP-1R [1]): 2.87 nM

SRAHQCS[Nle]ETRTCDINPAWYTG[hArg]GIRPVGRF-NH2 (linker 6-13 via L7; reading uncertain) [Conjugate 271]
GPR10 EC50 0% FBS (GPR10 [2]): 9 nM
GPR10 EC50 10% FBS (GPR10 [2]): 39 nM
NPFF2R EC50 0% FBS (human NPFF2R): 130 nM
NPFF2R EC50 10% FBS (human NPFF2R): 140 nM

SRAHQCS[Nle]ETRTCDINPAWYTG[hArg]GIRPVGRF-NH2 (linker 6-13 via L3; reading uncertain) [Conjugate 255]
GPR10 EC50 0% FBS (GPR10 [2]): 8 nM
GPR10 EC50 10% FBS (GPR10 [2]): 9.1 nM
NPFF2R EC50 0% FBS (human NPFF2R): 150 nM
NPFF2R EC50 10% FBS (human NPFF2R): 220 nM
GPR10 EC50 (GPR10 [3]): 9.1 nM

Y[Aib]EGTFHSDYDIYKDKQAA[Aib]KFVQWLLAGGPSSGAPPPS (linker 14-21 via staple K4; reading uncertain) [Conjugate 165]
EC50 Creluc (human GIPR [4]): 5.31 nM
EC50 Creluc (human GLP-1R [5]): 13.8 nM

H[dS]QGTFTSDYSKYLDEKAAKEFIKWLLRA (linker 17-24 via K4; reading uncertain) [Conjugate 123]
EC50 cAMP 0% FBS (human GCGR): 0.451 nM
EC50 cAMP 0% FBS (human GLP-1R [1]): 2.37 nM

SRAHQCS[Nle]ETRTCDINPAWYTG[hArg]GIRPVGRF-NH2 (linker 6-13 via L4; reading uncertain) [Conjugate 259]
GPR10 EC50 0% FBS (GPR10 [2]): 12 nM
GPR10 EC50 10% FBS (GPR10 [2]): 26 nM
NPFF2R EC50 0% FBS (human NPFF2R): 470 nM
NPFF2R EC50 10% FBS (human NPFF2R): > 10000 nM
GPR10 EC50 (GPR10 [3]): 26 nM

HXQGTFTSDYSKYLDSKKAQEFVKWLLNGPSSGAPPPS (staple K4 on Lys 17, 24; Aib 2) [Conjugate 127]
EC50 cAMP 0% FBS (human GCGR): 0.009 nM
EC50 cAMP 0% FBS (human GLP-1R [1]): 0.148 nM

SRAHQCS[Nle]ETRTCDINPAWYTG[hArg]GIRPVGRF-NH2 (linker 6-13 via L12; reading uncertain) [Conjugate 269]
GPR10 EC50 0% FBS (GPR10 [2]): 10 nM
GPR10 EC50 10% FBS (GPR10 [2]): 120 nM
NPFF2R EC50 0% FBS (human NPFF2R): 1600 nM
NPFF2R EC50 10% FBS (human NPFF2R): ~8000 nM

HXQGTFTSDYSKYLDKKKAKEFKQWLLNXGRNRNNIA (staple K4 on Lys 16, 23; Aib 2, 29) [Conjugate 129]
EC50 cAMP 0% FBS (human GCGR): 56 nM
EC50 cAMP 0% FBS (human GLP-1R [1]): 31.1 nM

SRAHQCS[Nle]ETRTCDINPAWYTG[hArg]GIRPVGRF-NH2 (linker 6-13 via L5; reading uncertain) [Conjugate 263]
GPR10 EC50 0% FBS (GPR10 [2]): 7.8 nM
GPR10 EC50 10% FBS (GPR10 [2]): 80 nM
NPFF2R EC50 0% FBS (human NPFF2R): 520 nM
NPFF2R EC50 10% FBS (human NPFF2R): > 10000 nM
GPR10 EC50 (GPR10 [3]): 80 nM

YXEGTFTSDYSIYKDKQAAXKFVNWLLAGGPSSGAPPPS (staple K5 on Lys 14, 21; Aib 2, 20) [Conjugate 141]
EC50 cAMP 0% FBS (human GIPR [6]): 0.0048 nM
EC50 cAMP 0% FBS (human GLP-1R [7]): 0.022 nM
EC50 Creluc (human GIPR [4]): 0.02 nM
EC50 Creluc (human GLP-1R [5]): 0.01 nM

YXEGTFHSDYDIYKDKQAALKFVAWLLAGGPSSGAPPPS (staple K5 on Lys 14, 21; Aib 2; Nle 20) [Conjugate 168]
EC50 Creluc (human GIPR [4]): 303 nM
EC50 Creluc (human GLP-1R [5]): > 1000 nM

YXEGTFTSDYSIYKDKQAALKFVAWLLAGGPSSGAPPPS (staple K5 on Lys 14, 21; Aib 2; D-Ser 8, 11; Nle 20) [Conjugate 170]
EC50 Creluc (human GIPR [4]): 15.7 nM
EC50 Creluc (human GLP-1R [5]): 3.74 nM

YXEGTFHSDYDIYKDKQAALKFVAWLLAGGPSSGAPPPS (staple K4 on Lys 14, 21; Aib 2; Nle 20) [Conjugate 167]
EC50 Creluc (human GIPR [4]): 20.4 nM
EC50 Creluc (human GLP-1R [5]): 18.8 nM

YXEGTFTSDYSIYKDKQAALKFVAWLLAGGPSSGAPPPS (staple K4 on Lys 14, 21; Aib 2; D-Ser 8, 11; Nle 20) [Conjugate 169]
EC50 Creluc (human GIPR [4]): 11.3 nM
EC50 Creluc (human GLP-1R [5]): 1.32 nM

HXEGTFTSDVSSYLEGKAAKEFIKWLVKGRG (staple K5 on Lys 17, 24; Aib 2; C-terminal -OH) [Conjugate 181]
EC50 cAMP 0% FBS (human GLP-1R [8]): 0.026 nM

HXQGTFTSDYSKYLDKKAAKEFKQWLLNGPSSGAPPPS (staple K4 on Lys 16, 23; Aib 2) [Conjugate 128]
EC50 cAMP 0% FBS (human GCGR): 16.2 nM
EC50 cAMP 0% FBS (human GLP-1R [1]): 6.64 nM

SRAHQCS[Nle]ETRTCDINPAWYTG[hArg]GIRPVGRF-NH2 (linker 6-13 via L1; reading uncertain) [Conjugate 251]
GPR10 EC50 0% FBS (GPR10 [2]): 5.9 nM
GPR10 EC50 10% FBS (GPR10 [2]): 10 nM
NPFF2R EC50 0% FBS (human NPFF2R): 920 nM
NPFF2R EC50 10% FBS (human NPFF2R): 1200 nM
GPR10 EC50 (GPR10 [3]): 10 nM

HXQGTFTSDYSKYLDEKAAKEFIKWLLNGRNRNNIA (staple K4 on Lys 17, 24; Aib 2) [Conjugate 125]
EC50 cAMP 0% FBS (human GCGR): 0.626 nM
EC50 cAMP 0% FBS (human GLP-1R [1]): 0.21 nM

HXQGTFTSDYSKYLDSKKAKEFVKWLLNXGPSSGAPPPS (not fully specified; staple K4 on Lys 17, 24; Aib 2, 29) [Conjugate 126]
EC50 cAMP 0% FBS (human GCGR): 0.092 nM

H[dS]QGTFTSDYSKYLDEKAAKEFIKWLLNGGPSSGAPPPS (linker 17-24 via K4; ends not checked) [Conjugate 122]
EC50 cAMP 0% FBS (human GCGR): 0.07 nM
EC50 cAMP 0% FBS (human GLP-1R [1]): 0.0037 nM

H[dS]QGTFTSDYSKYLDEKAAKEFIKWLLNGGPSSGAPPPS (linker 17-24 via K0; ends not checked) [Conjugate 124]
EC50 cAMP 0% FBS (human GCGR): 0.319 nM
EC50 cAMP 0% FBS (human GLP-1R [1]): 0.049 nM

SRAHQCS[Nle]ETRTCDINPAWYTG[hArg]GIRPVGRF-NH2 (linker 6-13 via L9; reading uncertain) [Conjugate 268]
GPR10 EC50 0% FBS (GPR10 [2]): 8.2 nM
GPR10 EC50 10% FBS (GPR10 [2]): 120 nM
NPFF2R EC50 0% FBS (human NPFF2R): 9000 nM
NPFF2R EC50 10% FBS (human NPFF2R): > 10000 nM

H[dS]QGTFTSDYSKYLDEKAAKEFIKWLLNGGPSSGAPPPS (linker 17-24 via K5; ends not checked) [Conjugate 121]
EC50 cAMP 0% FBS (human GCGR): 2.54 nM
EC50 cAMP 0% FBS (human GLP-1R [1]): 1.36 nM

Y[Aib]EGTFTSDYSIYKDKQAA[Aib]KFVNWLLAGGPSSGAPPPS (linker 14-21 via staple K4; reading uncertain) [Conjugate 142]
EC50 cAMP 0% FBS (human GIPR [6]): 0.008 nM
EC50 Creluc (human GIPR [4]): 0.02 nM
EC50 Creluc (human GLP-1R [5]): 0.02 nM

Y[Aib]EGTFHSDYDIYKDKQAA[Aib]KFVQWLLAGGPSSGAPPPS (linker 14-21 via staple K5; reading uncertain) [Conjugate 166]
EC50 Creluc (human GIPR [4]): 12.6 nM
EC50 Creluc (human GLP-1R [5]): 83.9 nM

SRAHQCS[Nle]ETRTCDINPAWYTG[hArg]GIRPVGRF-NH2 (linker 6-13 via L8; reading uncertain) [Conjugate 267]
GPR10 EC50 0% FBS (GPR10 [2]): 24 nM
GPR10 EC50 10% FBS (GPR10 [2]): 830 nM
NPFF2R EC50 0% FBS (human NPFF2R): 560 nM
NPFF2R EC50 10% FBS (human NPFF2R): ~10000 nM
